Laboratory results reported in patent US20190125833A1 (Five Prime, published 2019).
One block for each binder: values may come before it.

Biological target: T1, Myostatin (UniProt O14793 267-375, limits assumed)
T1 sequence (looked up): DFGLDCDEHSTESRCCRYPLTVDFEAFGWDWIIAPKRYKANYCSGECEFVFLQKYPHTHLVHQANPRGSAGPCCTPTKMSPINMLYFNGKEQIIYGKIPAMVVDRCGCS
Experiment: cell-based or functional assay

IC50 of inhibition of myostatin dependent SMAD2/3 activation (luciferase reporter, HEK293, 0.1 nM myostatin): 0.5 nM
B1: hNOPE (1-957) ECD-FC (Fc fusion, not shown: a dimerising Fc or GST)
chain: ELLLPQETTVELSCGVGPLQVILGPEQAAVLNCSLGAAAAGPPTRVTWSKDGDTLLEHDHLHLLPNGSLWLSQPLAPNGSDESVPEAVGVIEGNYSCLAHGPLGVLASQTAVVKLATLADFSLHPESQTVEENGTARFECHIEGLPAPIITWEKDQVTLPEEPRLIVLPNGVLQILDVQESDAGPYRCVATNSARQHFSQEALLSVAHRGSLASTRGQDVVIVAAPENTTVVSGQSVVMECVASADPTPFVSWVRQDGKPISTDVIVLGRTNLLIANAQPWHSGVYVCRANKPRTRDFATAAAELRVLAAPAITQAPEALSRTRASTARFVCRASGEPRPALRWLHNGAPLRPNGRVKVQGGGGSLVITQIGLQDAGYYQCVAENSAGMACAAASLAVVVREGLPSAPTRVTATPLSSSAVLVAWERPEMHSEQIIGFSLHYQKARGMDNVEYQFAVNNDTTELQVRDLEPNTDYEFYVVAYSQLGASRTSTPALVHTLDDVPSAAPQLSLSSPNPSDIRVAWLPLPPSLSNGQVVKYKIEYGLGKEDQIFSTEVRGNETQLMLNSLQPNKVYRVRISAGTAAGFGAPSQWMHHRTPSMHNQSHVPFAPAELKVQAKMESLVVSWQPPPHPTQISGYKLYWREVGAEEEANGDRLPGGRGDQAWDVGPVRLKKKVKQYELTQLVPGRLYEVKLVAFNKHEDGYAAVWKGKTEKAPAPDMPIQRGPPLPPAHVHAESNSSTSIWLRWKKPDFTTVKIVNYTVRFSPWGLRNASLVTYYTSSGEDILIGGLKPFTKYEFAVQSHGVDMDGPFGSVVERSTLPDRPSTPPSDLRLSPLTPSTVRLHWCPPTEPNGEIVEYLILYSSNHTQPEHQWTLLTTQGNIFSAEVHGLESDTRYFFKMGARTEVGPGPFSRLQDVITLQEKLSDSLDMHSVT

IC50 of inhibition of myostatin dependent SMAD2/3 activation (luciferase reporter, HEK293, 0.1 nM myostatin): 0.068 nM | fold difference of IC50 against hNOPE (1-620) ECD-FC: 2.5 fold | fold difference of IC50 against hNOPE (1-957) ECD-FC: 7 fold
B2: mNOPE (1-955) ECD-FC (Fc fusion, not shown: a dimerising Fc or GST)
chain: ELPLPQETTVKLSCDEGPLQVILGPEQAVVLDCTLGATAAGPPTRVTWSKDGDTVLEHENLHLLPNGSLWLSSPLEQEDSDDEEALRIWKVTEGSYSCLAHSPLGVVASQVAVVKLATLEDFSLHPESQIVEENGTARFECHTKGLPAPIITWEKDQVTVPEESRLITLPNGVLQILDVQDSDAGSYRCVATNSARQRFSQEASLTVALRGSLEATRGQDVVIVAAPENTTVVSGQSVVMECVASADPTPFVSWVRQDGKPISTDVIVLGRTNLLIASAQPRHSGVYVCRANKPRTRDFATAAAELRVLAAPAISQAPEALSRTRASTARFVCRASGEPRPALHWLHDGIPLRPNGRVKVQGGGGSLVITQIGLQDAGYYQCVAENSAGTACAAAPLAVVVREGLPSAPTRVTATPLSSSSVLVAWERPELHSEQIIGFSLHYQKARGVDNVEYQFAVNNDTTELQVRDLEPNTDYEFYVVAYSQLGASRTSSPALVHTLDDVPSAAPQLTLSSPNPSDIRVAWLPLPSSLSNGQVLKYKIEYGLGKEDQVFSTEVPGNETQLTLNSLQPNKVYRVRISAGTGAGYGVPSQWMQHRTPGVHNQSHVPFAPAELKVRAKMESLVVSWQPPPHPTQISGYKLYWREVGTEEEADGDRPPGGRGDQAWDVGPVRLKKKVKQYELTQLVPGRLYEVKLVAFNKHEDGYAAVWKGKTEKAPTPDLPIQRGPPLPPAHVHAESNSSTSIWLRWKKPDFTTVKIVNYTVRFGPWGLRNASLVTYYTSSGEDILIGGLKPFTKYEFAVQSHGVDMDGPFGSVVERSTLPDRPSTPPSDLRLSPLTPSTVRLHWCPPTEPNGEIVEYLILYSNNHTQPEHQWTLLTTEGNIFSAEVHGLESDTRYFFKMGARTEVGPGPFSRLQDVITLQKTFSDSLDVHAV
